Among the data in patent publication US20250242041A1 (Seagen, published 2025) are EC50 values, retold here.

Positions count from the first letter of the chain named.

The term EC50 denotes the concentration giving half of the maximal effect. Read a low EC50 as a more potent agent.

T1: human αvβ6 on 293F:huβ6 cells (human, UniProt P06756 31-1048; P18564 22-788)
T1 chain 1: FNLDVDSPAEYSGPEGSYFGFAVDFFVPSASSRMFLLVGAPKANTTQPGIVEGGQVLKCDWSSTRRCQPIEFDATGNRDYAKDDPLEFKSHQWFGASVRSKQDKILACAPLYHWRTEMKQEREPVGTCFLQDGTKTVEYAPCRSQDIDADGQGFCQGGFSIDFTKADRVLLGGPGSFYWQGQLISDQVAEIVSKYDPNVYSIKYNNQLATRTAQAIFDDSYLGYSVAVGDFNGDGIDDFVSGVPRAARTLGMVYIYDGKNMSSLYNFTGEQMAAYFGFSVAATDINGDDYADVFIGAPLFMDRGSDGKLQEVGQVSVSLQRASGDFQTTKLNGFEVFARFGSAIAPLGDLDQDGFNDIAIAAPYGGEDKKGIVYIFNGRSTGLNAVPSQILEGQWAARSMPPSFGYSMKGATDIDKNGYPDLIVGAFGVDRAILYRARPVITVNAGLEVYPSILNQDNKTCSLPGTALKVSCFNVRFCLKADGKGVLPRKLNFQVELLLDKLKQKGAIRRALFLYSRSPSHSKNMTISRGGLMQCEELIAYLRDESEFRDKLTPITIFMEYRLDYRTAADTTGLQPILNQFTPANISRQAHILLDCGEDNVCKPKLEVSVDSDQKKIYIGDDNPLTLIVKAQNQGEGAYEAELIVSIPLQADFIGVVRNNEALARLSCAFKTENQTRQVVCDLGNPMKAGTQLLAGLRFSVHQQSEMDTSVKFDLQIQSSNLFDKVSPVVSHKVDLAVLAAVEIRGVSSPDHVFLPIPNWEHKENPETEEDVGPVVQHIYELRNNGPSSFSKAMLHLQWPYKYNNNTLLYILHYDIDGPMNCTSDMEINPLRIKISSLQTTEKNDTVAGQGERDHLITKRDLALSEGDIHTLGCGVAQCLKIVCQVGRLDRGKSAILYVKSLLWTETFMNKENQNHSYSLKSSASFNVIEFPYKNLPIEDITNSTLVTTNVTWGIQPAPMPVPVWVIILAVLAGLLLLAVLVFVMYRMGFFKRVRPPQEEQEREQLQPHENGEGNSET
T1 chain 2: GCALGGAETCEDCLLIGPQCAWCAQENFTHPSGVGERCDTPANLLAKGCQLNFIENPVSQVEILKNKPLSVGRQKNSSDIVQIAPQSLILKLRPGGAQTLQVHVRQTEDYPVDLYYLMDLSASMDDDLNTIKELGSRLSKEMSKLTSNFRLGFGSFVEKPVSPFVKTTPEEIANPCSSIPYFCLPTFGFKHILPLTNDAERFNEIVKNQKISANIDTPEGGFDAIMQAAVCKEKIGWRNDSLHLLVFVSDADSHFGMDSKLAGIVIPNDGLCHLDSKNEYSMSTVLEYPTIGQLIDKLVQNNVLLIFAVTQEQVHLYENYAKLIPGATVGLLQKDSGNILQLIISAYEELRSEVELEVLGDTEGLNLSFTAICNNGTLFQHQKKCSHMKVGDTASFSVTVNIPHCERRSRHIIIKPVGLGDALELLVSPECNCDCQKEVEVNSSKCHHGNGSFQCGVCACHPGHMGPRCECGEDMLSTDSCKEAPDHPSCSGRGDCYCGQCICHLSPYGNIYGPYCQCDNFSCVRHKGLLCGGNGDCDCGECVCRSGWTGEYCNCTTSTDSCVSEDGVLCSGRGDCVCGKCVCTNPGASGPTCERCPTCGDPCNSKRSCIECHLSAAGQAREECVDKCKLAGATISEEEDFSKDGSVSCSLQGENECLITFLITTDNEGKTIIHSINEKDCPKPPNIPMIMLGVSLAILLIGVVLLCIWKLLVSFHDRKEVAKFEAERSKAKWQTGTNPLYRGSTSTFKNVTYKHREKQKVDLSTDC

B1: c2A2 (antibody, V domains shown)
VH: EFQLQQSGPELVKPGASVKISCKASGYSFTDYNVNWVKQSNGKSLEWIGVINPKYGTTRYNQKFKGKATLTVDKPSSTAYMQLNSLTSEDSAVYYCTRGLNAWDYWGQGASVTVSS
VL: DIQMTQSPASLSASVGETVTITCGASENIYGALNWYQRKQGKSPQLLIYGATNLADGMSSRFSGSGSGRQYSFKISSLHPDDVATYYCQNVLTTPYTFGGGTKLEIK
B2: h2A2 HCLA (antibody, V domains shown)
VH: QFQLVQSGAEVKKPGASVKVSCKASGYSFTDYNVNWVRQAPGQGLEWIGVINPKYGTTRYNQKFKGRATLTVDKSTSTAYMELSSLRSEDTAVYYCTRGLNAWDYWGQGTLVTVSS
VL: DIQMTQSPSSLSASVGDRVTITCGASENIYGALNWYQQKPGKAPKLLIYGATNLADGVPSRFSGSGSGTDFTFTISSLQPEDIATYYCQNVLTTPYTFGQGTKLEIKR
B3: h2A2 HDLA (antibody, V domains shown)
VH: B2 VH with S75P
VL: B2 VL
B4: h2A2 HALA (antibody, V domains shown)
VH: B2 VH with I48M, A68V, L70M, V72R, K74T, A79V
VL: B2 VL
B5: h2A2 HALB (antibody, V domains shown)
VH: B2 VH with I48M, A68V, L70M, V72R, K74T, A79V
VL: B2 VL with T69R, F71Y
B6: h2A2 HDLB (antibody, V domains shown)
VH: B2 VH with S75P
VL: B2 VL with T69R, F71Y
B7: h2A2 HCLB (antibody, V domains shown)
VH: B2 VH
VL: B2 VL with T69R, F71Y
B8: h2A2 HBLB (antibody, V domains shown)
VH: B2 VH with I48M, A68V, L70M, V72R, K74T, S75P, A79V
VL: B2 VL with T69R, F71Y
B9: h2A2 HBLA (antibody, V domains shown)
VH: B2 VH with I48M, A68V, L70M, V72R, K74T, S75P, A79V
VL: B2 VL
B10: h2A2 HALC (antibody, V domains shown)
VH: B2 VH with I48M, A68V, L70M, V72R, K74T, A79V
VL: B2 VL with D56T, T69R, F71Y
B11: h2A2 HALF (antibody, V domains shown)
VH: B2 VH with I48M, A68V, L70M, V72R, K74T, A79V
VL: B2 VL with G24Q, D56T, F71Y
B12: h2A2 HALG (antibody, V domains shown)
VH: B2 VH with I48M, A68V, L70M, V72R, K74T, A79V
VL: B2 VL with A55E, T69R, F71Y
B13: h2A2 HCLF (antibody, V domains shown)
VH: B2 VH
VL: B2 VL with G24Q, D56T, F71Y
B14: h2A2 HCLD (antibody, V domains shown)
VH: B2 VH
VL: B2 VL with F71Y
B15: h2A2 HCLH (antibody, V domains shown)
VH: B2 VH
VL: B2 VL with T69R
B16: h2A2 HALD (antibody, V domains shown)
VH: B2 VH with I48M, A68V, L70M, V72R, K74T, A79V
VL: B2 VL with F71Y
B17: h2A2 HALE (antibody, V domains shown)
VH: B2 VH with I48M, A68V, L70M, V72R, K74T, A79V
VL: B2 VL with G24Q, T69R, F71Y
B18: h2A2 HCLE (antibody, V domains shown)
VH: B2 VH
VL: B2 VL with G24Q, T69R, F71Y
B19: h2A2 HCLC (antibody, V domains shown)
VH: B2 VH
VL: B2 VL with D56T, T69R, F71Y
B20: h2A2 HALH (antibody, V domains shown)
VH: B2 VH with I48M, A68V, L70M, V72R, K74T, A79V
VL: B2 VL with T69R

One experiment has as its target T1, human αvβ6 on 293F:huβ6 cells. Put plainly: competition binding on 293F cells; 2nM m2A2-AF647 competitor.
On to B1, for which it took 4 nM to reach a half-maximal effect (EC50).
B2 came in with an EC50 of 74 nM.
Regarding B3, the EC50 came to 147 nM.
Still for that read-out and setting: next, B4: 74 nM; B5: 5 nM.
The same measure, in the same setting: next, B6: 6 nM.
Same read-out and setting: next, B7: 3 nM; B8: 9 nM; B9: 85 nM.

Another experiment has the same target. The experiment is described as above. The source holds these as a separate data set.
B1 came in with an EC50 of 3 nM.
On the same count and under the same terms, next, B10: 9 nM; B11: 14 nM; B12: 1 nM.
Still for that read-out and setting: for B13 the value was 6 nM; for B14, 5 nM.
B5 returned an EC50 of 8 nM.
Still for that read-out and setting: next, B15: 30 nM; B16: 12 nM; B17: 5 nM.
Molecule B7 registered an EC50 of 3 nM.
Same read-out and setting: next, B18: 3 nM; B19: 3 nM.
The same measure, in the same setting: next, B20: 46 nM.

The target is the same in the next experiment. Described as above. This is another data set of the same source.
B12 showed an EC50 of 1 nM.
Same read-out and setting: next, B15: 46 nM; B18: 2 nM.
